Laboratory results as given in patent US20090226437A1 (Genentech, published 2009).

Columns and labels:
[1] = biological target: alphaEbeta7 on alphaEbeta7-transfected 293 cells (human) (UniProt P38570); assay: cell adhesion inhibition, alphaEbeta7 293 cells on coated huE-Cadherin, experiment 2 of 3
[2] = biological target: alphaEbeta7 on alphaEbeta7-transfected 293 cells (human) (UniProt P38570); assay: cell adhesion inhibition, alphaEbeta7 293 cells on coated huE-Cadherin, experiment 3 of 3
[3] = biological target: alphaEbeta7 on alphaEbeta7-transfected 293 cells (human) (UniProt P38570); assay: cell adhesion inhibition, alphaEbeta7 293 cells on coated huE-Cadherin, experiment 1 of 3
[4] = biological target: T1, Full length human integrin alpha4beta7 (expressed in 293 cells, purified by Fib504 affinity chromatography) (human, UniProt P13612 34-1032; P26010 20-798); assay: BIAcore (column head 'BIAcore Affinity Assay (nM)'); per paragraph 379 the Fab was immobilised on a CM5 chip and human integrin alpha4beta7 injected. The row shows unchanged L1 … and L2 KYASQSIS in the 'Fib504•K RF framework', i.e. the starting Fib504K-RF graft
T1 construct: mature; also called immobilized alpha4beta7
T1 sequence (P13612 34-1032, chain 1 of 2): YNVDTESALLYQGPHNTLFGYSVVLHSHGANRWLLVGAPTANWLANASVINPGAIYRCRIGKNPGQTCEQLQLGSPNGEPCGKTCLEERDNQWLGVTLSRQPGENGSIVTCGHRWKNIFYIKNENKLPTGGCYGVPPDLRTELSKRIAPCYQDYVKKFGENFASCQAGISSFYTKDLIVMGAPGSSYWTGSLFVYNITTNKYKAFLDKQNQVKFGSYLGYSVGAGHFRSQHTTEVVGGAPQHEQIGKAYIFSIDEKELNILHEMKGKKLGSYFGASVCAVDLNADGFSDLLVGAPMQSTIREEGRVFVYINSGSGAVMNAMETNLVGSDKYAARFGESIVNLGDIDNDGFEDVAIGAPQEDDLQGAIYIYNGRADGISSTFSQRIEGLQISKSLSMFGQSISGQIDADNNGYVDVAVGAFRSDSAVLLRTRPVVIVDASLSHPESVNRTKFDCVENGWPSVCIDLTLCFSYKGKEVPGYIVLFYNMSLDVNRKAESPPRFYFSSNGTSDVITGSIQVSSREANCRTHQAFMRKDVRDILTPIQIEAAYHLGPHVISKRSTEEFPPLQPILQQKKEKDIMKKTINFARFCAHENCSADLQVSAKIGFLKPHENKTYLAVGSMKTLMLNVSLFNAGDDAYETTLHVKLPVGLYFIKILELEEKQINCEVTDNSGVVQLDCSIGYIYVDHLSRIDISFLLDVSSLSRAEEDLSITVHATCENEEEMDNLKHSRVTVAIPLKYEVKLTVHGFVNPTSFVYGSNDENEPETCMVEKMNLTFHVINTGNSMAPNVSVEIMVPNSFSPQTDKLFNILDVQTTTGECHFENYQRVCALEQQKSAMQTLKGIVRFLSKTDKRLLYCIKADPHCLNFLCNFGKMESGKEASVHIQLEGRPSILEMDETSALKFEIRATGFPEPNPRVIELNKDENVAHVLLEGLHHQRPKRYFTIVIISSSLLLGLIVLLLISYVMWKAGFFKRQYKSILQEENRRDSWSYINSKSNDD
T1 sequence (P26010 20-798, chain 2 of 2): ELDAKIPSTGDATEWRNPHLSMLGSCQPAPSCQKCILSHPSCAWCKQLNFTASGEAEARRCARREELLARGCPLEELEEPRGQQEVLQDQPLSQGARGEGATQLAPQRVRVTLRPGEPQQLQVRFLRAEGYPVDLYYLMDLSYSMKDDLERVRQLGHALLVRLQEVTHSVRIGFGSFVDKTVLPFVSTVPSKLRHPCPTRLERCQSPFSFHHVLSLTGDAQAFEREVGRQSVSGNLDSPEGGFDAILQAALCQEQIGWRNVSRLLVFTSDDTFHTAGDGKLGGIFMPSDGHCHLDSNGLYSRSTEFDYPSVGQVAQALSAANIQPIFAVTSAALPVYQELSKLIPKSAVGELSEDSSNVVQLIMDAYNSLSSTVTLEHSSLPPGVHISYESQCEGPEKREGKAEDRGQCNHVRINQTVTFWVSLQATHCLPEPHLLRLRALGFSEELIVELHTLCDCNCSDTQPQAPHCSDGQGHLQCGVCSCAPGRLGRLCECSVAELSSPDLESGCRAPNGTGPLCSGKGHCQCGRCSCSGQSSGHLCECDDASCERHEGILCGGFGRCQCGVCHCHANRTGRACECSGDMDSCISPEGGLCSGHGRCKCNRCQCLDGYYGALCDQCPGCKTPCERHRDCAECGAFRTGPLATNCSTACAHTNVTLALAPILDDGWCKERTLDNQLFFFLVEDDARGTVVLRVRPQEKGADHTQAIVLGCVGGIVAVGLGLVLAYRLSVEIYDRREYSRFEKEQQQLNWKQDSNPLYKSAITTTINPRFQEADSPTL
Description: (§1) Affinity determinations were performed by surface plasmon resonance using a BIAcore™-3000 (Biacore, Piscataway, N.J.). Humanized Fib504 Fab variants were immobilized in 10 mM acetate pH 4.5 (ranging from 250 to 1500 response units (RU)) on a CM5 sensor chip and 2-fold dilutions of human integrin alpha4beta7 (1.5 to 770 nM) in TBSM containing 2% n-octylglucoside were injected. Each sample was analyzed with 5-minute association and 5 to 60-minute dissociation times. After each injection, the chip was regenerated using three 1-minute injections of 8 M urea. Binding response was corrected by subtracting the RU from a blank flow cell. A 1:1 Languir model of simultaneous fitting of kₒₙ and koff was used for kinetics analysis.
(§2) Libraries were generated as before using a soft randomization strategy simultaneously at each of the 6 HVRs for the Fib504K-RL and Fib504K-RF grafts and sorted on immobilized alpha4beta7 for 4 rounds of selection as described above. Enrichment was only observed for the library based on the Fib504K-RF graft. […] Most clones contained the change Y32L; in addition position 31 was frequently changed to D, S, P or N (FIG. 1C). In addition to the starting graft, Fib504K-RF, 3 clones were expressed and purified as Fab protein and further analyzed by Biacore as described above. […]

[5] = biological target: T1, Full length human integrin alpha4beta7 …; assay: SPR (BIAcore-3000), Fab immobilized, alpha4beta7 injected
Description: as §1
Libraries were generated as before using a soft randomization strategy simultaneously at each of the 6 HVRs for the Fib504K-RL and Fib504K-RF grafts and sorted on immobilized alpha4beta7 for 4 rounds of selection as described above. Enrichment was only observed for the library based on the Fib504K-RF graft. […] Most clones contained the change Y32L; in addition position 31 was frequently changed to D, S, P or N (FIG. 1C). In addition to the starting graft, Fib504K-RF, 3 clones were expressed and purified as Fab protein and further analyzed by Biacore as described above. […] The results of the Biacore analysis are shown in Table 3, below, and indicate that selected variation in the HVRs and/or framework regions, disclosed herein, generated antagonist antibodies to alpha4beta7 having improved affinity relative to the starting antibody.

[6] = biological target: T1, Full length human integrin alpha4beta7 …; assay: BIAcore (column head 'BIAcore Affinity Assay (nM)'); per paragraph 379 the Fab was immobilised on a CM5 chip and human integrin alpha4beta7 injected
Description: as §1, §2

[7] = biological target: T1, Full length human integrin alpha4beta7 …; assay: SPR (BIAcore), Fab; reference Fib504 Fab
Description: as §1, §2

[8] = biological target: T1, Full length human integrin alpha4beta7 …; assay: phage-displayed Fab on immobilized alpha4beta7
[9] = biological target: T1, Full length human integrin alpha4beta7 …; assay: phage binding assay (OD): Fab displayed on phage, immobilised alpha4beta7, albumin as control coat

Chain of alphaEbeta7 on alphaEbeta7-transfected 293 cells (human) (P38570 19-1179, chain 1 of 2): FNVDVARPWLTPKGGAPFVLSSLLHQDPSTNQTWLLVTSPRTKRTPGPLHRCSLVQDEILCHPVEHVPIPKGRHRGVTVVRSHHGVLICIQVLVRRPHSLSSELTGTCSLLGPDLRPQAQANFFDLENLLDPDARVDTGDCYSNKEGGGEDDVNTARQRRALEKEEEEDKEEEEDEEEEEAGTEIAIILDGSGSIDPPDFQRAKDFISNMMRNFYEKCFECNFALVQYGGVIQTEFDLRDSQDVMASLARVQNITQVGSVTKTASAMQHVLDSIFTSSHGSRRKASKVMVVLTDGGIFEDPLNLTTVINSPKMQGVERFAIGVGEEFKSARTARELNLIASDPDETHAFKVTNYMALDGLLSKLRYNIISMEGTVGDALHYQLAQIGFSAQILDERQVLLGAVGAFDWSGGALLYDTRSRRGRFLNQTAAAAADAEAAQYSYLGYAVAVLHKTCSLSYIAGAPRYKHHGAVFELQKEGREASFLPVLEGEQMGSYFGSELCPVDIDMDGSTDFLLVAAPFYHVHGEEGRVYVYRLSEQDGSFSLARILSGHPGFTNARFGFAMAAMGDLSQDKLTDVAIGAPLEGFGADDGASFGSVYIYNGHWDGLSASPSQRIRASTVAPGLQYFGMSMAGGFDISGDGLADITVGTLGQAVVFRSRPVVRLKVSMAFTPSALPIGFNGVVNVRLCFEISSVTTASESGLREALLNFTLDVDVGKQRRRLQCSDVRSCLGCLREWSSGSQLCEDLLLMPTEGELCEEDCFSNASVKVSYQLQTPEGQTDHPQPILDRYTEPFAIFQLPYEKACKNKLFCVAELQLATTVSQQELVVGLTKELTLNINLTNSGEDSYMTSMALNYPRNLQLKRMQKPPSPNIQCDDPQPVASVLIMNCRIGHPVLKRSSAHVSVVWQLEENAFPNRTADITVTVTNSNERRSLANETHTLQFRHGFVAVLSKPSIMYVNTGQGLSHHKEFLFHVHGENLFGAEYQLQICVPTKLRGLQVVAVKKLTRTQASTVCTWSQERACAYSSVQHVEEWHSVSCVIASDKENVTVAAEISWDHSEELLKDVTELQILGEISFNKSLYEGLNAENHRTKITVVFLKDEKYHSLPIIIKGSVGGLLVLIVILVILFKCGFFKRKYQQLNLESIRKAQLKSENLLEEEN
Chain of alphaEbeta7 on alphaEbeta7-transfected 293 cells (human) (P26010 20-798, chain 2 of 2, further chain): as the sequence (P26010 20-798, chain 2 of 2) above

Molecule: HP2/1 (anti-alpha4, control) (antibody)
- IC90 [1]: > 100 nM
- IC90 [2]: > 100 nM
- IC90 [3]: > 100 nM

B1: Fib504K-RF graft (Fib504K graft in the RF acceptor framework), Fab (Fab, V domains shown)
VH: EVQLVESGGGLVQPGGSLRLSCAASGFFITNNYWGWVRQAPGKGLEWVGYISYSGSTSYNPSLKSRFTISRDTSKNTFYLQMNSLRAEDTAVYYCAMTGSSGYFDFWGQGTLVTVSS
VL: DIQMTQSPSSLSASVGDRVTITCRASESVDTYLHWYQQKPGKAPKLLIKYASQSISGVPSRFSGSGSGTDFTLTISSLQPEDFATYYCQQGNSLPNTFGQGTKVEIKR
notes: number not given; also called hu504K-RF graft
- Kd [4]: 132 nM

B2: Variant hu504.16, Fab (Fab, name in Kabat numbering, V domains shown)
VH: EVQLVESGGGLVQPGGSLRLSCAASGFFITNNYWGWVRQAPGKGLEWVGYISYSGSTSYNPSLKSRFTISRDTSKNTFYLQMNSLRAEDTAVYYCAMTGSSGYFDFWGQGTLVTVSS
VL: DIQMTQSPSSLSASVGDRVTITCRASESVDTLLHWYQQKPGKAPKLLIKYASQSISGVPSRFSGSGSGTDFTLTISSLQPEDFATYYCQQGNSLPNTFGQGTKVEIKR
notes: Clone from the Fib504K-RF library with an HVR-L1 change; Tested as Fab; also called Variant 504.16
- Kd [5]: 23 nM
- Kd [6]: 23.4 nM

B3: Variant hu504.32, Fab (Fab, V domains shown)
VH: EVQLVESGGGLVQPGGSLRLSCAASGFFITNNYWGWVRQAPGKGLEWVGYISYSGSTSYNPSLKSRFTISRDTSKNTFYLQMNSLRAEDTAVYYCAMTGSSGYFDFWGQGTLVTVSS
VL: DIQMTQSPSSLSASVGDRVTITCRASESVDDLLHWYQQKPGKAPKLLIKYASQSISGVPSRFSGSGSGTDFTLTISSLQPEDFATYYCQQGNSLPNTFGQGTKVEIKR
notes: T31D and Y32L in the light chain of the hu504 Kgraft; Tested as Fab; also called Variant 504.32; humanized variant 504.32
- Kd [5]: 3 nM
- fold tighter binding relative to the starting rat antibody [7]: 3 fold
- Kd [6]: 3.5 nM

B4: Fib504 graft (direct HVR graft of rat Fib504 into the human acceptor framework), Fab displayed on phage (Fab, V domains shown)
VH: EVQLVESGGGLVQPGGSLRLSCAASGFFITNNYWGWVRQAPGKGLEWVGYISYSGSTSYNPSLKSRFTISADTSKNTAYLQMNSLRAEDTAVYYCAMTGSSGYFDFWGQGTLVTVSS
VL: DIQMTQSPSSLSASVGDRVTITCRASESVDTYLHWYQQKPGKAPKLLIYYASQSISGVPSRFSGSGSGTDFTLTISSLQPEDFATYYCQQGNSLPNTFGQGTKVEIKR
notes: Tested as monovalent Fab-g3 on phage (VH-CH1 fused to truncated P3); also called hu504 graft; humanized504 graft
- binding result [8]: no binding

B5: Variant hu504.5, Fab (Fab, name in Kabat numbering, V domains shown)
VH: EVQLVESGGGLVQPGGSLRLSCAASGFFITNNYWGWVRQAPGKGLEWVGYISYSGSTSYNPSLKSRFTISRDTSKNTFYLQMNSLRAEDTAVYYCAMTGSSGYFDFWGQGTLVTVSS
VL: DIQMTQSPSSLSASVGDRVTITCRASESVDSLLHWYQQKPGKAPKLLIKYASQSISGVPSRFSGSGSGTDFTLTISSLQPEDFATYYCQQGNSLPNTFGQGTKVEIKR
notes: Tested as Fab; also called Variant 504.5
- Kd [5]: 9 nM

B6: Fib504 Kgraft (HVR graft that also includes VL position 49K), Fab displayed on phage (Fab, V domains shown)
VH: EVQLVESGGGLVQPGGSLRLSCAASGFFITNNYWGWVRQAPGKGLEWVGYISYSGSTSYNPSLKSRFTISADTSKNTAYLQMNSLRAEDTAVYYCAMTGSSGYFDFWGQGTLVTVSS
VL: DIQMTQSPSSLSASVGDRVTITCRASESVDTYLHWYQQKPGKAPKLLIKYASQSISGVPSRFSGSGSGTDFTLTISSLQPEDFATYYCQQGNSLPNTFGQGTKVEIKR
notes: Tested as Fab on phage; also called hu504 Kgraft; hu504K graft
- binding result [8]: no binding

B7: Fib504-RF (Fib504 graft in the RF acceptor framework), Fab displayed on phage (Fab, name in Kabat numbering, V domains shown)
VH: EVQLVESGGGLVQPGGSLRLSCAASGFFITNNYWGWVRQAPGKGLEWVGYISYSGSTSYNPSLKSRFTISRDTSKNTFYLQMNSLRAEDTAVYYCAMTGSSGYFDFWGQGTLVTVSS
VL: DIQMTQSPSSLSASVGDRVTITCRASESVDTYLHWYQQKPGKAPKLLIYYASQSISGVPSRFSGSGSGTDFTLTISSLQPEDFATYYCQQGNSLPNTFGQGTKVEIKR
notes: It is built from the Fib504 graft chains with the RF framework changes; Tested as Fab on phage; also called hu504-RF
- binding result [9]: no binding

B8: chimeric Fib504 Fab (Fab, V domains shown)
VH: EVQLQESGPGLVKPSQSLSLTCSVTGFFITNNYWGWIRKFPGNKMEWMGYISYSGSTSYNPSLKSRISITRDTSKNQFFLQLNSVTTEDTATYYCAMTGSSGYFDFWGPGTMVTVSS
VL: DVVMTQSPATLSVTPGERISLSCRASESVDTYLHWYQQKPNESPRLLIKYASQSISGIPSRFSGSGSGTDFTLSINGVELEDLSIYYCQQGNSLPNTFGAGTKLELKR
notes: Rat Fib504 variable domains in a chimeric Fab; the constant domains are not specified
- Kd [5]: 11 nM
